Source: patent US20260028421A1 (JIANGSU HENGRUI PHARMACEUTICALS, published 2026)

Columns and labels:
Experiment in all cases: ELISA
[1] = biological target: hTSLP (human, UniProt Q969D9 29-159)
[2] = biological target: hIL5 (human, UniProt P05113 20-134)
[3] = biological target: hCTLA4 (human, UniProt P16410 36-161)
[4] = biological target: hPDL1 (human, UniProt Q9NZQ7 19-238)
hPDL1, sequence (Q9NZQ7 19-238 limits assumed): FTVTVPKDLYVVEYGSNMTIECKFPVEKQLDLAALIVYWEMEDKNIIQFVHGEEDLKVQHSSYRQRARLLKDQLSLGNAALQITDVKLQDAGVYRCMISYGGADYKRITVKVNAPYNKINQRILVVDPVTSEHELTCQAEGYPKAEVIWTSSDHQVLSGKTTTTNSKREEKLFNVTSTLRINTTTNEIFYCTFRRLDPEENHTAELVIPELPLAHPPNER

hCTLA4, sequence (P16410 36-161 limits assumed): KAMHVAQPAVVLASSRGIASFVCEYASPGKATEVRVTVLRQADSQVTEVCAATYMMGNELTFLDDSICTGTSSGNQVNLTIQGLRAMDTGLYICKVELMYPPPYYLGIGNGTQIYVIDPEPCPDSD

Binder	EC50 [1] [nM]	EC50 [2] [nM]	EC50 [3] [nM]	EC50 [4] [nM]
HJ-3 (bispecific antibody) chain 1: not shown chain 2: DIQMTQSPSSVSASVGDRVTITCRASQDIANYLSWYQQKPGKSPKLLIYGTSNLEVGVPSRFSGSRSGTDFTLTISSLQPEDFATYYCLQDKEFPRTFGGGTKVEIKGGGGSSGAPRFLTRPLAFVVSVGKDATLSSQIVGNPTPQVSWEKDKQPVTAGARFRLAQDGDLYRLKILDLQLSDSGQYVSRARNAIGEAFACLGLQVDAEA chain 3: EVQLVQSGAEVKKPGSSVKVSCKASGYTFSNYLIEWVRQAPGQGLEWIGVIDPGVGDTNYNENFKGRATLTADKSTSTAYIELSSLRSEDTAVYYCAREDNTGTAFDYWGQGTTVTVSSASTKGPSVFPLAPSSKSTSGGTAALGCLVKDYFPEPVTVSWNSGALTSGVHTFPAVLQSSGLYSLSSVVTVPSSSLGTQTYICNVNHKPSNTKVDKKVEPKSCDKTHTCPPCPAPEAAGGPSVFLFPPKPKDTLMISRTPEVTCVVVDVSHEDPEVKFNWYVDGVEVHNAKTKPREEQYNSTYRVVSVLTVLHQDWLNGKEYKCKVSNKALPAPIEKTISKAKGQPREPQVCTLPPSREEMTKNQVSLSCAVKGFYPSDIAVEWESNGQPENNYKTTPPVLDSDGSFFLVSKLTVDKSRWQQGNVFSCSVMHEALHNHYTQKSLSLSPGKDYKDDDDK chain 4: SIVMTQTPLSLSVTPGQPASISCKASQSVSSDVTWYLQKPGQSPQLLIYYVSEHYTGVPDRFSGSGYGTDFTLKISRVEAEDVGVYYCQQHHRFPLTFGQGTKLEIKRTVAAPSVFIFPPSDEQLKSGTASVVCLLNNFYPREAKVQWKVDNALQSGNSQESVTEQDSKDSTYSLSSTLTLSKADYEKHKVYACEVTHQGLSSPVTKSFNRGEC	3.23	17.4		
HJ-5 (bispecific antibody) chain 1: not shown chain 2: DIQMTQSPSSVSASVGDRVTITCRASQDIANYLSWYQQKPGKSPKLLIYGTSNLEVGVPSRFSGSRSGTDFTLTISSLQPEDFATYYCLQDKEFPRTFGGGTKVEIKGGGGSSGAPRFLTRPKASVVSVGKDATLSSQIVGNPFPQVSWEKDKQPVTAGVRFRLAQDGDLYRLKILDLQLSDSGQYVSRARNAHGEAFACLGLQVDAEA chain 3: EVQLVQSGAEVKKPGSSVKVSCKASGYTFSNYLIEWVRQAPGQGLEWIGVIDPGVGDTNYNENFKGRATLTADKSTSTAYIELSSLRSEDTAVYYCAREDNTGTAFDYWGQGTTVTVSSASTKGPSVFPLAPSSKSTSGGTAALGCLVKDYFPEPVTVSWNSGALTSGVHTFPAVLQSSGLYSLSSVVTVPSSSLGTQTYICNVNHKPSNTKVDKKVEPKSCDKTHTCPPCPAPEAAGGPSVFLFPPKPKDTLMISRTPEVTCVVVDVSHEDPEVKFNWYVDGVEVHNAKTKPREEQYNSTYRVVSVLTVLHQDWLNGKEYKCKVSNKALPAPIEKTISKAKGQPREPQVCTLPPSREEMTKNQVSLSCAVKGFYPSDIAVEWESNGQPENNYKTTPPVLDSDGSFFLVSKLTVDKSRWQQGNVFSCSVMHEALHNHYTQKSLSLSPGK chain 4: SIVMTQTPLSLSVTPGQPASISCKASQSVSSDVTWYLQKPGQSPQLLIYYVSEHYTGVPDRFSGSGYGTDFTLKISRVEAEDVGVYYCQQHHRFPLTFGQGTKLEIKRTVAAPSVFIFPPSDEQLKSGTASVVCLLNNFYPREAKVQWKVDNALQSGNSQESVTEQDSKDSTYSLSSTLTLSKADYEKHKVYACEVTHQGLSSPVTKSFNRGEC	2.64	16		
HJ-7 (bispecific antibody) chain 1: not shown chain 2: DIQMTQSPSSVSASVGDRVTITCRASQDIANYLSWYQQKPGKSPKLLIYGTSNLEVGVPSRFSGSRSGTDFTLTISSLQPEDFATYYCLQDKEFPRTFGGGTKVEIKGGGGSSGAPRFLTRPKASVVSVGKDATLSCQIVGNPFPQVSWEKDKQPVTAGVRFRLAQDGDLYRLKILDLQLSDSGQYVCRARNAHGEAFACLGLQVDAEA chain 3: EVQLVQSGAEVKKPGSSVKVSCKASGYTFSNYLIEWVRQAPGQGLEWIGVIDPGVGDTNYNENFKGRATLTADKSTSTAYIELSSLRSEDTAVYYCAREDNTGTAFDYWGQGTTVTVSSASTKGPSVFPLAPSSKSTSGGTAALGCLVKDYFPEPVTVSWNSGALTSGVHTFPAVLQSSGLYSLSSVVTVPSSSLGTQTYICNVNHKPSNTKVDKKVEPKSCDKTHTCPPCPAPEAAGGPSVFLFPPKPKDTLMISRTPEVTCVVVDVSHEDPEVKFNWYVDGVEVHNAKTKPREEQYNSTYRVVSVLTVLHQDWLNGKEYKCKVSNKALPAPIEKTISKAKGQPREPQVCTLPPSREEMTKNQVSLSCAVKGFYPSDIAVEWESNGQPENNYKTTPPVLDSDGSFFLVSKLTVDKSRWQQGNVFSCSVMHEALHNHYTQKSLSLSPGK chain 4: SIVMTQTPLSLSVTPGQPASISCKASQSVSSDVTWYLQKPGQSPQLLIYYVSEHYTGVPDRFSGSGYGTDFTLKISRVEAEDVGVYYCQQHHRFPLTFGQGTKLEIKRTVAAPSVFIFPPSDEQLKSGTASVVCLLNNFYPREAKVQWKVDNALQSGNSQESVTEQDSKDSTYSLSSTLTLSKADYEKHKVYACEVTHQGLSSPVTKSFNRGEC	2.18	17.7		
HJ-6 (bispecific antibody) chain 1: not shown chain 2: DIQMTQSPSSVSASVGDRVTITCRASQDIANYLSWYQQKPGKSPKLLIYGTSNLEVGVPSRFSGSRSGTDFTLTISSLQPEDFATYYCLQDKEFPRTFGGGTKVEIKGGGGSSGAPRFLTCPKASVVSVGKDATLSSQIVGNPFPQVSWEKDKQPVTAGVRFRLAQDGDLYRLKILDLQLSDSGQYVSRARNAHGEAFACLGLQVDAEA chain 3: EVQLVQSGAEVKKPGSSVKVSCKASGYTFSNYLIEWVRQAPGQGLEWIGVIDPGVGDTNYNENFKGRATLTADKSTSTAYIELSSLRSEDTAVYYCAREDNTGTAFDYWGQGTTVTVSSASTKGPSVFPLAPSSKSTSGGTAALGCLVKDYFPEPVTVSWNSGALTSGVHTFPAVLQSSGLYSLSSVVTVPSSSLGTQTYICNVNHKPSNTKVDKKVEPKSCDKTHTCPPCPAPEAAGGPSVFLFPPKPKDTLMISRTPEVTCVVVDVSHEDPEVKFNWYVDGVEVHNAKTKPREEQYNSTYRVVSVLTVLHQDWLNGKEYKCKVSNKALPAPIEKTISKAKGQPREPQVCTLPPSREEMTKNQVSLSCAVKGFYPSDIAVEWESNGQPENNYKTTPPVLDSDGSFFLVSKLTVDKSRWQQGNVFSCSVMHEALHNHYTQKSLSLSPGK chain 4: SIVMTQTPLSLSVTPGQPASISCKASQSVSSDVTWYLQKPGQSPQLLIYYVSEHYTGVPDRFSGSGYGTDFTLKISRVEAEDVGVYYCQQHHRFPLTFGQGTKLEIKRTVAAPSVFIFPPSDEQLKSGTASVVCLLNNFYPREAKVQWKVDNALQSGNSQESVTEQDSKDSTYSLSSTLTLSKADYEKHKVYACEVTHQGLSSPVTKSFNRGEC	2.88	37		
PL-18 (bispecific antibody) chain 1: not shown chain 2: DIVLTQSPASLAVSPGQRATITCRASESVSIHGTHLMHWYQQKPGQPPKLLIYAASKLESGVPARFSGSGSGTDFTLTINPVEAEDTANYYCQQSFEDPLTFGQGTKLEIKRTVASGIPPKIECLPIDISIDEGKCLTVASAFTGEPTPEVTWSTGGRKIHSQEQGRFHIENTDDSTTLTIKDVQKQDGGLYTLTLRNEFGSDSATVNIHIRSI chain 3: not shown chain 4: not shown			6.7	1.6
PL-19 (bispecific antibody) chain 1: not shown chain 2: DIVLTQSPASLAVSPGQRATITCRASESVSIHGTHLMHWYQQKPGQPPKLLIYAASKLESGVPARFSGSGSGTDFTLTINPVEAEDTANYYCQQSFEDPLTFGQGTKLEIKRTVASGIPPKIECLPIDISIDEGKVLTVASCFTGEPTPEVTWSTGGRKIHSQEQGRFHIENTDDSTTLTIKDVQKQDGGLYTLTLRNEFGSDSATVNIHIRSI chain 3: not shown chain 4: not shown			6.5	1.6
